According to the supplement of paper PMC10567573:

B1: NP_009172.2 (parent)
chain: LPALFTDLYSQEITAEEAREALP

Variants of: B1
Experiment: protein stability index of a GFP-peptide fusion (GPS, HEK-293T) (PSI 1-6); higher = more stable
Conditions: c terminus: native
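Also: lentivirally expressed fusion library, cells FACS-sorted into six equal-sized GFP/DsRed ratio bins, PSI computed from sequencing read fractions per bin weighted by bin number.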

Q: Which protein stability index does the source give for LPALFTDLYSQEGTAEEAREALP here?
A: 3.81

Q: With LPALFTDLYSQEKTAEEAREALP as the variant, how does the protein stability index read?
A: 2.66

Q: With LPALFTDLYSQELTAEEAREALP as the variant, how does the protein stability index read?
A: 2.71

Q: Which protein stability index does the source give for LPALFTDLYSQERTAEEAREALP here?
A: 2.1

Q: For LPALFTDLYSQECTAEEAREALP, which protein stability index is on record?
A: 2.57

Q: Which protein stability index does the source give for LPALFTDLYSQEQTAEEAREALP here?
A: 2.98

Q: For LPALFTDLYSQETTAEEAREALP, which protein stability index is on record?
A: 3.09

Q: With LPALFTDLYSQEFTAEEAREALP as the variant, how does the protein stability index read?
A: 2.69

Q: Which protein stability index does the source give for LPALFTDLYSQEWTAEEAREALP here?
A: 2.15

Q: Which protein stability index does the source give for LPALFTDLYSQEDTAEEAREALP here?
A: 3.25

Q: With LPALFTDLYSQEMTAEEAREALP as the variant, how does the protein stability index read?
A: 2.53

Q: Which protein stability index does the source give for LPALFTDLYSQEATAEEAREALP here?
A: 2.97

Q: For LPALFTDLYSQESTAEEAREALP, which protein stability index is on record?
A: 3.26

Q: For LPALFTDLYSQENTAEEAREALP, which protein stability index is on record?
A: 3.46

Q: With LPALFTDLYSQEETAEEAREALP as the variant, how does the protein stability index read?
A: 3.25

Q: For LPALFTDLYSQEVTAEEAREALP, which protein stability index is on record?
A: 2.46

Q: With LPALFTDLYSQEYTAEEAREALP as the variant, how does the protein stability index read?
A: 2.69

Q: With LPALFTDLYSQEHTAEEAREALP as the variant, how does the protein stability index read?
A: 2.71

Q: Which protein stability index does the source give for LPALFTDLYSQEPTAEEAREALP here?
A: 3.87

Q: For LPALFTDLYSQEIRAEEAREALP, which protein stability index is on record?
A: 2.44

Q: For LPALFTDLYSQEIAAEEAREALP, which protein stability index is on record?
A: 2.21

Q: With LPALFTDLYSQEIEAEEAREALP as the variant, how does the protein stability index read?
A: 2.66

Q: With LPALFTDLYSQEICAEEAREALP as the variant, how does the protein stability index read?
A: 2.48

Q: For LPALFTDLYSQEIWAEEAREALP, which protein stability index is on record?
A: 2.62

Q: With LPALFTDLYSQEIQAEEAREALP as the variant, how does the protein stability index read?
A: 2.27

Q: Which protein stability index does the source give for LPALFTDLYSQEIGAEEAREALP here?
A: 2.73

Q: Which protein stability index does the source give for LPALFTDLYSQEIVAEEAREALP here?
A: 2.51

Q: With LPALFTDLYSQEIDAEEAREALP as the variant, how does the protein stability index read?
A: 2.55

Q: Which protein stability index does the source give for LPALFTDLYSQEISAEEAREALP here?
A: 2.67

Q: With LPALFTDLYSQEIIAEEAREALP as the variant, how does the protein stability index read?
A: 2.25

Q: Which protein stability index does the source give for LPALFTDLYSQEIFAEEAREALP here?
A: 2.48

Q: For LPALFTDLYSQEIKAEEAREALP, which protein stability index is on record?
A: 2.34

Q: With LPALFTDLYSQEINAEEAREALP as the variant, how does the protein stability index read?
A: 2.76

Q: For LPALFTDLYSQEIYAEEAREALP, which protein stability index is on record?
A: 2.56

Q: Which protein stability index does the source give for LPALFTDLYSQEIMAEEAREALP here?
A: 2.45

Q: For LPALFTDLYSQEIPAEEAREALP, which protein stability index is on record?
A: 3.48

Q: Which protein stability index does the source give for LPALFTDLYSQEIHAEEAREALP here?
A: 2.46

Q: With LPALFTDLYSQEILAEEAREALP as the variant, how does the protein stability index read?
A: 2.48

Q: For LPALFTDLYSQEITEEEAREALP, which protein stability index is on record?
A: 2.55

Q: For LPALFTDLYSQEITTEEAREALP, which protein stability index is on record?
A: 3.05

Q: For LPALFTDLYSQEITMEEAREALP, which protein stability index is on record?
A: 2.51

Q: With LPALFTDLYSQEITSEEAREALP as the variant, how does the protein stability index read?
A: 2.67

Q: With LPALFTDLYSQEITFEEAREALP as the variant, how does the protein stability index read?
A: 2.53

Q: Which protein stability index does the source give for LPALFTDLYSQEITGEEAREALP here?
A: 2.83

Q: For LPALFTDLYSQEITHEEAREALP, which protein stability index is on record?
A: 2.6

Q: For LPALFTDLYSQEITVEEAREALP, which protein stability index is on record?
A: 2.78

Q: Which protein stability index does the source give for LPALFTDLYSQEITYEEAREALP here?
A: 2.72

Q: For LPALFTDLYSQEITNEEAREALP, which protein stability index is on record?
A: 2.66

Q: Which protein stability index does the source give for LPALFTDLYSQEITCEEAREALP here?
A: 3

Q: Which protein stability index does the source give for LPALFTDLYSQEITKEEAREALP here?
A: 2.56

Q: For LPALFTDLYSQEITIEEAREALP, which protein stability index is on record?
A: 2.76

Q: With LPALFTDLYSQEITWEEAREALP as the variant, how does the protein stability index read?
A: 2.68

Q: With LPALFTDLYSQEITQEEAREALP as the variant, how does the protein stability index read?
A: 2.84

Q: Which protein stability index does the source give for LPALFTDLYSQEITREEAREALP here?
A: 2.36

Q: With LPALFTDLYSQEITPEEAREALP as the variant, how does the protein stability index read?
A: 3.05

Q: With LPALFTDLYSQEITLEEAREALP as the variant, how does the protein stability index read?
A: 2.53

Q: Which protein stability index does the source give for LPALFTDLYSQEITAEFAREALP here?
A: 2.38

Q: With LPALFTDLYSQEITAEAAREALP as the variant, how does the protein stability index read?
A: 2.39

Q: Which protein stability index does the source give for LPALFTDLYSQEITAEDAREALP here?
A: 2.71

Q: With LPALFTDLYSQEITAECAREALP as the variant, how does the protein stability index read?
A: 2.24

Q: For LPALFTDLYSQEITAEGAREALP, which protein stability index is on record?
A: 2.21

Q: With LPALFTDLYSQEITAEHAREALP as the variant, how does the protein stability index read?
A: 2.2

Q: For LPALFTDLYSQKITAEEAREALP, which protein stability index is on record?
A: 2.92

Q: For LPALFTDLYSQWITAEEAREALP, which protein stability index is on record?
A: 2.21

Q: For LPALFTDLYSQMITAEEAREALP, which protein stability index is on record?
A: 2.93

Q: For LPALFTDLYSQSITAEEAREALP, which protein stability index is on record?
A: 3.13

Q: For LPALFTDLYSQIITAEEAREALP, which protein stability index is on record?
A: 3.15

Q: For LPALFTDLYSQLITAEEAREALP, which protein stability index is on record?
A: 3.04

Q: Which protein stability index does the source give for LPALFTDLYSQHITAEEAREALP here?
A: 3.39

Q: Which protein stability index does the source give for LPALFTDLYSQFITAEEAREALP here?
A: 3.01

Q: For LPALFTDLYSQPITAEEAREALP, which protein stability index is on record?
A: 3.77

Q: Which protein stability index does the source give for LPALFTDLYSQYITAEEAREALP here?
A: 3.07

Q: For LPALFTDLYSQNITAEEAREALP, which protein stability index is on record?
A: 3.79

Q: Which protein stability index does the source give for LPALFTDLYSQQITAEEAREALP here?
A: 2.69

Q: With LPALFTDLYSQRITAEEAREALP as the variant, how does the protein stability index read?
A: 2.59

Q: With LPALFTDLYSQGITAEEAREALP as the variant, how does the protein stability index read?
A: 3.78

Q: With LPALFTDLYSQVITAEEAREALP as the variant, how does the protein stability index read?
A: 3.38

Q: With LPALFTDLYSQTITAEEAREALP as the variant, how does the protein stability index read?
A: 3.03

Q: Which protein stability index does the source give for LPALFTDLYSQEITAAEAREALP here?
A: 2.76

Q: Which protein stability index does the source give for LPALFTDLYSQEITAQEAREALP here?
A: 2.64

Q: For LPALFTDLYSQEITAHEAREALP, which protein stability index is on record?
A: 2.75

Q: For LPALFTDLYSQEITASEAREALP, which protein stability index is on record?
A: 2.86

Q: With LPALFTDLYSQEITAYEAREALP as the variant, how does the protein stability index read?
A: 2.51

Q: For LPALFTDLYSQEITAIEAREALP, which protein stability index is on record?
A: 2.99

Q: Which protein stability index does the source give for LPALFTDLYSQEITATEAREALP here?
A: 2.62

Q: For LPALFTDLYSQEITANEAREALP, which protein stability index is on record?
A: 2.81

Q: With LPALFTDLYSQEITADEAREALP as the variant, how does the protein stability index read?
A: 2.75

Q: For LPALFTDLYSQEITAKEAREALP, which protein stability index is on record?
A: 2.97

Q: For LPALFTDLYSQEITAPEAREALP, which protein stability index is on record?
A: 3.16

Q: With LPALFTDLYSQEITAFEAREALP as the variant, how does the protein stability index read?
A: 2.89

Q: For LPALFTDLYSQEITACEAREALP, which protein stability index is on record?
A: 2.51

Q: Which protein stability index does the source give for LPALFTDLYSQEITAWEAREALP here?
A: 2.48

Q: With LPALFTDLYSQEITALEAREALP as the variant, how does the protein stability index read?
A: 2.73

Q: With LPALFTDLYSQEITAGEAREALP as the variant, how does the protein stability index read?
A: 2.9

Q: Which protein stability index does the source give for LPALFTDLYSQEITAVEAREALP here?
A: 2.48

Q: For LPALFTDLYSQEITAMEAREALP, which protein stability index is on record?
A: 2.58

Q: Which protein stability index does the source give for LPALFTDLYSQEITAREAREALP here?
A: 2.68
